What was measured:
PEG-precipitated EV-A71 = target: T1, PEG-precipitated EV-A71 (Enterovirus A71, stock strain …, UniProt Q9DY01); assay: ELISA; conditions: both partners purified
T1 construct: also called EV-A71 protein; EV-A71 capsid proteins; source: PEG-precipitated EV-A71 (virus propagated in RD cells)

[1] = target: T2, ENO1 (Alpha-enolase), endogenous in RD cells (Homo sapiens (RD cells), UniProt P06733); assay: affinity purification with mass spectrometry; conditions: one partner purified
T2 construct: also called α-enolase
T2 sequence (P06733 whole entry): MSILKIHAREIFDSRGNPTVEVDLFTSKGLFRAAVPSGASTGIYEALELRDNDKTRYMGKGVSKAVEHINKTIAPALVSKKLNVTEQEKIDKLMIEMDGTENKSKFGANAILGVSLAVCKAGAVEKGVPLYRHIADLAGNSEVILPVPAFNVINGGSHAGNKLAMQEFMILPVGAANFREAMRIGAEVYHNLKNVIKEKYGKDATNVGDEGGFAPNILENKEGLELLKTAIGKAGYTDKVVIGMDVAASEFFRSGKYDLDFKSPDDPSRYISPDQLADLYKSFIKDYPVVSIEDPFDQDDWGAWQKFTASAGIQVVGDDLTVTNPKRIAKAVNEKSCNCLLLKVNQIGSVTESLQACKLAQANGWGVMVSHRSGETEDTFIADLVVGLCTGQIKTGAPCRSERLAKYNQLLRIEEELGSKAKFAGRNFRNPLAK

[2] = target: T3, ENO1 recombinant protein (α-enolase) (Homo sapiens, UniProt P06733); assay: ELISA; indirect ELISA; recombinant protein (5 μg/mL) coated in carbonate-bicarbonate pH 9.6, 07-IgG1 diluted and added at 37 °C for 1 h, HRP goat anti-human IgG, OD 450 nm; conditions: both partners purified
T3 construct: also called hENO1; rhENO1; source: recombinant protein
T3 sequence (P06733 whole entry): as above

B1: 07-human IgG1 antibody (antibody, V domains shown)
VH: EVQLLESGAVVKKPGESLKISCTGSGYVFRDYWVGWVRQMPGKGLEWLGMIYPDEFDIRYSPSFQGQVTISADKSIDTAYLQLSSLEASDTGIYYCARHGNTGCGGTMCYKSYLYYGMDVWGQGTTVTVS
VL: ELVLTQSPSVSVSPGQTASITCSGDKLGDKYACWYQQKPGQSPVLVIYQDNKRPSGIPERFSGSNSGNTATLTISGTRAMDEADYYCQAWDSSTCYVFGTGTKLTVL
notes: also called 07-IgG1; clone 07 recombinant antibody; source: ExpiCHO, co-transfected (pcDNA3.4 heavy and light chain), purified by protein A resin
Q: What does the source list for B1?
A: binding result (PEG-precipitated EV-A71): no binding; binding result [1]: binds; binding result [2]: binds

Reference: PMC8822709 (Journal of Biomedical Science, 2022)
